Measured values published in US20100303819A1.

Columns and labels:
Assay in all cases: control-mAb-coated microbeads on monocyte-derived macrophages (which carry hDCL-1, MMR and DEC-205), confocal microscopy
[1] = target: DEC-205 (CD205) on human monocyte-derived macrophages (human) (UniProt O60449)
[2] = target: MMR/CD206 on human monocyte-derived macrophages (human) (UniProt P22897)
[3] = target: human DCL-1 (native, on human leukocytes) (human) (UniProt Q8IX05)

Measured: microbeads bound per cell

Sequence of UniProt Q8IX05 (Q8IX05 23-232 limits assumed): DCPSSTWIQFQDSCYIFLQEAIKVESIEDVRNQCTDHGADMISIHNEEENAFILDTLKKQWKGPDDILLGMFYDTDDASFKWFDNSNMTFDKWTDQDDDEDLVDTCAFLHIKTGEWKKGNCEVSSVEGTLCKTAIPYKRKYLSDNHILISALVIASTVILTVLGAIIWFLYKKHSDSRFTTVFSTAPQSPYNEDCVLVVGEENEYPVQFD
Sequence of UniProt P22897 (P22897 19-1456): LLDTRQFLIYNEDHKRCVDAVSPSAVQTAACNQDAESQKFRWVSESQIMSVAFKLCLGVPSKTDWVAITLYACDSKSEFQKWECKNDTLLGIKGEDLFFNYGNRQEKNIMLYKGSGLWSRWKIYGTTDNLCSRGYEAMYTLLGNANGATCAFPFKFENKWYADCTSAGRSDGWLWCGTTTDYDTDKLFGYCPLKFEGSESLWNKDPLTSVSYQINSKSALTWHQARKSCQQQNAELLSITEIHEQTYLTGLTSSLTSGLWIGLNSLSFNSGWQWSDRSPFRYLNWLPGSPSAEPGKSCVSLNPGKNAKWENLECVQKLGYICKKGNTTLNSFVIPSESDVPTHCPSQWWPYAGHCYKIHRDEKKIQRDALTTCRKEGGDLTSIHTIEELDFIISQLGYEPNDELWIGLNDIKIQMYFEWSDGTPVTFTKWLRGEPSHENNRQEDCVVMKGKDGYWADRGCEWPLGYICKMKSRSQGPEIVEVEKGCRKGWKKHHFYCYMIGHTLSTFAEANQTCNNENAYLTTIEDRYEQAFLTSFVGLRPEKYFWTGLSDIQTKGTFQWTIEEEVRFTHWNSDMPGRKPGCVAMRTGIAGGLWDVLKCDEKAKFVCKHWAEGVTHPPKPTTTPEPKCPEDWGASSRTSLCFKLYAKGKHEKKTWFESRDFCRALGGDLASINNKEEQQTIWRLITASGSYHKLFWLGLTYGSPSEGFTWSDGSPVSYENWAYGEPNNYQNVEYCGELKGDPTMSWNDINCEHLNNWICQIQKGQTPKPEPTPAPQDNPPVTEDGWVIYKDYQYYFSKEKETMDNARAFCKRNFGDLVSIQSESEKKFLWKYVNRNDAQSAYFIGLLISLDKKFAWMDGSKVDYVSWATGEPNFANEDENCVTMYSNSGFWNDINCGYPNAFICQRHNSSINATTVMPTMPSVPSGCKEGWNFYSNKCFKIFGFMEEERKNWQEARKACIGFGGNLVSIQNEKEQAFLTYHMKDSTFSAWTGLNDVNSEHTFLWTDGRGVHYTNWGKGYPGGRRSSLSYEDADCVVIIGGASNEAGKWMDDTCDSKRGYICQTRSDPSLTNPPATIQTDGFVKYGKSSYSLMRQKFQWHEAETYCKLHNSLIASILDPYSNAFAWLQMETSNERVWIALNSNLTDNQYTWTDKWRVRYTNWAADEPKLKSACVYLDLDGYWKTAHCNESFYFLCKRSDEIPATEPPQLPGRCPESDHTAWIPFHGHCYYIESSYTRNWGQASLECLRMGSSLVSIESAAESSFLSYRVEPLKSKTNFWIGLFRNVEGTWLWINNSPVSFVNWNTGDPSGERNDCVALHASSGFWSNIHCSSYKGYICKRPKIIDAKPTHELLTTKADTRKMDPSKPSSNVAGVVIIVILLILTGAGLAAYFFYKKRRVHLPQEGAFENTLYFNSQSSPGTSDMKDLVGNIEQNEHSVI
Sequence of UniProt O60449 (O60449 28-1722): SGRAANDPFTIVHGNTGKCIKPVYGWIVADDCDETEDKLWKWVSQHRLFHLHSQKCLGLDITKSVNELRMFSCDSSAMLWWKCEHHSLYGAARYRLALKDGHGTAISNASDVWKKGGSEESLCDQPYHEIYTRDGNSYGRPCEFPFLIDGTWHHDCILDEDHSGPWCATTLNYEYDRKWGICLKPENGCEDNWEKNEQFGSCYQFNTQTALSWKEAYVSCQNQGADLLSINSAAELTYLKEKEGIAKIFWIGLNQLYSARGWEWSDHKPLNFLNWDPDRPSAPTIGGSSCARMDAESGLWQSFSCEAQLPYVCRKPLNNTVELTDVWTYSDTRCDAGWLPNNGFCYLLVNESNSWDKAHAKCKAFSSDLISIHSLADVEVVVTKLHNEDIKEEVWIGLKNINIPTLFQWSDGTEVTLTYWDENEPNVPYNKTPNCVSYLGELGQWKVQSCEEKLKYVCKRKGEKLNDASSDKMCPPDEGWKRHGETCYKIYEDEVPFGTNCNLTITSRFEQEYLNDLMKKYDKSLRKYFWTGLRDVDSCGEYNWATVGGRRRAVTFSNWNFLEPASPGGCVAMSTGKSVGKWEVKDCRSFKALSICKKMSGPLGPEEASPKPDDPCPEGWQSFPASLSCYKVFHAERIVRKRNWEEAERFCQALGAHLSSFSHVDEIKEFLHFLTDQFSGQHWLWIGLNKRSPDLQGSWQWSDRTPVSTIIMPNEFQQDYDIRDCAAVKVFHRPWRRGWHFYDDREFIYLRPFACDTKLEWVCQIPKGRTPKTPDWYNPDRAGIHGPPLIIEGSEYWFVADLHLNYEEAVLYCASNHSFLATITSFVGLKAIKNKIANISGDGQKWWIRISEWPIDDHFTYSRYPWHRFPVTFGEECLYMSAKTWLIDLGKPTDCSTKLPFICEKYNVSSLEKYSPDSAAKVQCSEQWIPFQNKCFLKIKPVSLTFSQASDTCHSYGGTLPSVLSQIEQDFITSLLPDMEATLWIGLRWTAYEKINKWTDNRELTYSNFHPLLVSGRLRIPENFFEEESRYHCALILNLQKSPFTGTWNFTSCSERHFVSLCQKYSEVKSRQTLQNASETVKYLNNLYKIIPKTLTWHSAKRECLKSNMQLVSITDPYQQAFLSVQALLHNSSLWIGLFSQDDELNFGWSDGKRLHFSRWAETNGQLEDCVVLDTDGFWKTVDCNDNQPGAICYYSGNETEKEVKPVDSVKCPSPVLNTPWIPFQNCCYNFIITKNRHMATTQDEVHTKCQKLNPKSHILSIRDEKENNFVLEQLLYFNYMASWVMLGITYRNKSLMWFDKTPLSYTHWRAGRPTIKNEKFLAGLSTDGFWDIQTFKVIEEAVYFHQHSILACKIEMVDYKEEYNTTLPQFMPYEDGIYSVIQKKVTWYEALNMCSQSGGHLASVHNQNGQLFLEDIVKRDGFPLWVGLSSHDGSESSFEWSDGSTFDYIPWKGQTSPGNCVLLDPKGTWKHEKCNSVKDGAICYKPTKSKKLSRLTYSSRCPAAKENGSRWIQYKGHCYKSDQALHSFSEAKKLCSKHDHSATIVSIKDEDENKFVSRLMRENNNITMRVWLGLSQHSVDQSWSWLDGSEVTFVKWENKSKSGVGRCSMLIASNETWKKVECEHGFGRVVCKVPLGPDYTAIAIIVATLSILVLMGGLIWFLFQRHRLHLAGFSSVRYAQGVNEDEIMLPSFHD

isotype control mAb 401.21 (antibody)
0.09 beads/cell: all assays above
